According to publication PMC4993999, “Asymmetry in inward- and outward-affinity constant of transport explain unidirectional lysine flux in Saccharomyces cerevisiae” (Scientific Reports, 2016):

How the values were obtained:
[1] = substrate: NCCCC[C@H](N)C(=O)O; assay: purified protein; type: biochemical, Saccharomyces cerevisiae; details: PMF-driven: ΔΨ -84 mV, ZΔpH -84 mV, external pH 6.0, internal pH 7.3, 30 °C, labelled compound, high-affinity component (out-to-in) of hyperbola plus linear fit
[2] = substrate: NCCCC[C@H](N)C(=O)O; assay: cells, lysate or membranes; type: cell-based, Saccharomyces cerevisiae; details: whole cells 22∆6AAL, 100 mM potassium phosphate, 10 mM glucose, pH 6.0, 30 °C, labelled compound
[3] = substrate: NCCCC[C@H](N)C(=O)O; assay: purified protein; details: PMF-driven: ΔΨ -84 mV, ZΔpH -84 mV, external pH 6.0, internal pH 7.3, 30 °C, labelled compound

B1: Lyp1-GFP (Lyp1-TEV-GFP-His10) (Saccharomyces cerevisiae S288C) (protein)
chain: MGRFSNIITSNKWDEKQNNIGEQSMQELPEDQIEHEMEAIDPSNKTTPYSIDEKQYNTKKKHGSLQGGAIADVNSITNSLTRLQVVSHETDINEDEEEAHYEDKHVKRALKQRHIGMIALGGTIGTGLFVGISTPLSNAGPVGSLIAYIFMGTIVYFVTQSLGEMATFIPVTSSITVFSKRFLSPAFGVSNGYMYWFNWAITYAVEVSVIGQVIEYWTDKVPLAAWIAIFWVIITLMNFFPVKVYGEFEFWVASVKVLAIMGYLIYALIIVCGGSHQGPIGFRYWRNPGAWGPGIISSDKSEGRFLGWVSSLINAAFTYQGTELVGITAGEAANPRKTVPRAINKVVFRIVLFYIMSLFFIGLLVPYNDSRLSASSAVIASSPFVISIQNAGTYALPDIFNAVVLITVVSAANSNVYVGSRVLYSLARTGNAPKQFGYVTRQGVPYLGVVCTAALGLLAFLVVNNNANTAFNWLINISTLAGLCAWLFISLAHIRFMQALKHRGISRDDLPFKAKLMPYGAYYAAFFVTVIIFIQGFQAFCPFKVSEFFTSYISLILLAVVFIGCQIYYKCRFIWKLEDIDIDSDRREIEAIIWEDDEPKNLWEKFWAAVA
notes: full length, C-terminal TEV-GFP-His10 kept; expressed in Pichia pastoris SMD1163; purified and reconstituted in yeast/E. coli lipid vesicles
Q: Which Km [1] does the source give for B1 here?
A: The Km was 20 ± 14 µM.

B2: Lyp1-YPet (Saccharomyces cerevisiae S288C) (protein)
chain: B1 chain
notes: full length, C-terminal TEV-YPet-His8 kept; expressed from plasmid under native LYP1 promoter in S. cerevisiae 22∆6AAL
Q: Which Km [2] does the source give for B2 here?
A: The Km was 10 ± 0.8 µM.

B3: LysP (Salmonella enterica subsp. enterica serovar Typhimurium str. LT2) (protein)
chain: MGSKTKTTEAPALRRELKARHLTMIAIGGSIGTGLFVASGATISQAGPGGALFSYILIGLMVYFLMTSLGELAAYMPVSGSFATYGQNYVEEGFGFALGWNYWYNWAVTIAVDLVAAQLVMGWWFPDTPGWIWSALFLCVIFLLNYISVRGFGEAEYWFSLIKVATVIIFIIVGVAMIIGIFKGVEPVGWSNWTTGDAPFAGGFAAMIGVAMIVGFSFQGTELIGIAAGESENPEKNIPRAVRQVFWRILLFYVFAILIISLIIPYTDPNLLRNDVKDISVSPFTLVFQHAGLLSAAAIMNAVILTAVLSAGNSGMYASTRMLYTLACDGKAPRIFAKLSRGGVPRNALYATTVIAGLCFLTSMFGNQTVYLWLLNTSGMTGFIAWLGIAISHYRFRRGYVLQGYDVNDLPYRSGFFPLGPIFAFVLCLIITLGQNYEAFLKDTIDWGGVAATYIGIPLFLLIWFGYKLIKGTHFVRYSEMHFPERVKK
Q: With B3 as the protein, how does the Km [3] read?
A: The Km was 1.5 ± 0.2 µM.
